Experimental data taken from publication PMC2669960 (The EMBO Journal, 2009).
Like-named read-outs stand apart in the source and are kept apart here.

T1: GST–Ska1 (full length), tag cleaved (human, UniProt Q96BD8 1-255)
T1 sequence: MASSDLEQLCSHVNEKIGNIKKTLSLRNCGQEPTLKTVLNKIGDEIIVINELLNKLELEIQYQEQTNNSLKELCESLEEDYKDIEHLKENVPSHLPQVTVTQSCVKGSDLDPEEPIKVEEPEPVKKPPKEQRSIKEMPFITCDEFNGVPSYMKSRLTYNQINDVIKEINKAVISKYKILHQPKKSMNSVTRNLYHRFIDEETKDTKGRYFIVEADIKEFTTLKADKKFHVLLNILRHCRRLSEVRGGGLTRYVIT

T2: His–Ska1 (full length), tag cleaved (human, UniProt Q96BD8 1-255)
T2 sequence: T1 sequence

B1: untagged Ska2 (natural protein)
chain: MEAEVDKLELMFQKAESDLDYIQYRLEYEIKTNHPDSASEKNPVTLLKELSVIKSRYQTLYARFKPVAVEQKESKSRICATVKKTMNMIQKLQKQTDLELSPLTKEEKTAAEQFKFHMPDL
B2: GST–Ska2 (full length), tag cleaved (natural protein)
chain: B1 chain
B3: His–Ska3 (N), tag cleaved (domain or fragment)
chain: MDPIRSFCGKLRSLASTLDCETARLQRALDGEESDFEDYPMRILYDLHSEVQTLKDDVNILLDKARLENQEGIDFIKATKVLMEKNSMDIMKIREYFQKYGYSPRVKKNSVHEQEAINSDPELSNCENFQKTDVKDDLSDPPVASSCISEKSPRSP
B4: His–Ska1 (N), tag cleaved (domain or fragment)
chain: MASSDLEQLCSHVNEKIGNIKKTLSLRNCGQEPTLKTVLNKIGDEIIVINELLNKLELEIQYQEQTNNSLKELCESLEEDYKDIEHLKENVPSHLPQVTVTQSCVKGSDLDPEEPIKVEEPEPVKKPPKE

Experiments:
Experiment in all cases: co-purification
[1] = biological target: T1, GST–Ska1 (full length), tag cleaved
[2] = biological target: B4
[3] = biological target: B3
[4] = biological target: T2, His–Ska1 (full length), tag cleaved
[5] = biological target: T1, GST–Ska1 (full length), tag cleaved; remark: listed apart in the source
[6] = biological target: T2, His–Ska1 (full length), tag cleaved; remark: listed apart in the source
[7] = biological target: B3; remark: listed apart in the source

B1: binds [1].

B2: binds [2]; binds [3]; binds [4].

B3: binds [5]; binds [6].

B4: binds [7].
